Molecular target: Protein L (UniProt Q51918)
Test: BLI

“Trastuzumab wild-type (recombinant Trastuzumab model) (antibody)” was tested, and the koff was 1.2e-05 s⁻¹.
